{"source": "patent US20250304693A1", "about": "(HIFIBIO, published 2025)", "binders": {"B1": {"name": "HFB6-3 (antibody, V domains shown)", "VH": "EVQLQQSGAELVKPGASVKLSCTDSGFNIKDTYIHWVTQRPQQGLEWIGRIDPANGFTRYDPKFQGKATITSDTSSNTAYLQLSSLTSEDTAVYYCAREDGYPYYTLDCWGQGTSVTVSS", "VL": "not shown", "notes": "Mouse lead antibody; also called HFB6-3-hG4P; parental HFB6-3"}, "B2": {"name": "22B3 (antibody, V domains shown)", "VH": "QVQLVQSGAEVKKPGASVKVSCKASGFSLSSYGVSWVRQAPGQGLEWMGAISYDGITYYASWAKSRVTMTRDTSTSTVYMELSSLRSEDTAVYYCARGDYYDDYVYVYALDIWGQGTLVTVSS", "VL": "EIVLTQSPGTLSLSPGERATLSCQASQSISTALAWYQQKPGQAPRLLIYAASTLASGIPDRFSGSGSGTDFTLTISRLEPEDFAVYYCQQGYSSSNLDNVFGGGTKVEIKR"}, "B3": {"name": "HFB6-2 (antibody, V domains shown)", "VH": "EVQLQQSGAELVKPGASVKLSCTASGVNIKDTYMYWVKQRPEQGLEWIGRIDPANGYTRYDPKFQDKATVTADTSSNTAHLQLSSLTSEDTAVYYCAVNDGYFEYFDVWGAGTTVTVSS", "VL": "not shown", "notes": "Mouse lead antibody; also called HFB6-2-hG4P; parental HFB6-2"}, "B4": {"name": "HFB6-3hz25-hG4P-C109S (antibody, V domains shown)", "VH": "QVQLQESGPGLVKPSGTLSLTCADSGFSISDTYIHWVRQPPGKGLEWIGRIDPANGFTRYNPSLKSRVTISSDKSKNQASLKLSSVTAADTAVYYCAREDGYPYYTLDSWGQGTTVTVSS", "VL": "DIVMTQSPDSLALSLGERATINCKSSQSLLDVDGKTYLNWFQQKPGQPPKRLIYLVSKLDSGVPDRFSGSGSGTDFTLTISSVQAEDVAVYYCWQGTHFPRTFGQGTKLEIK", "notes": "Humanized variant of HFB6-3"}}, "key": {"[1]": {"biological_target": "T1, human BTLA (B- and T-lymphocyte attenuator) on cells (human, UniProt Q7Z6A9 31-289)", "experiment": "cell-based or functional assay"}, "[2]": {"biological_target": "T1, human BTLA (B- and T-lymphocyte …)", "experiment": "cell-based or functional assay", "remark": "listed apart in the source"}, "[3]": {"biological_target": "T1, human BTLA (B- and T-lymphocyte …)", "experiment": "FACS on HEK293T.hBTLA cells, AF647 anti-human IgG Fc detection", "procedure": "(§1) In FIGS. 11A and 11B, HEK293 overexpressing human BTLA (FIG. 11A) and Expi293 cells overexpressing cynomolgus BTLA (FIG. 11B) were incubated with different concentrations of selected HFB6-3 humanized variants with cysteine mutations. Anti-BTLA antibodies binding to target cells were quantified with an AF647-conjugated anti-human IgG Fc 2nd antibody by FACS. HFB6-3hz24-hG4P-C109A, HFB6-3hz25-hG4P-C109A, HFB6-3hz24-hG4P-C109S and HFB6-3hz25-hG4P-C109S bound to human BTLA and cyno BTLA with single digit nM and sub-nM EC₅₀, similar as parental HFB6-3 (FIGS. 11A and 11B and Table 13)."}, "cynomolgus BTLA on cells [4]": {"biological_target": "T2, cynomolgus BTLA on cells (cynomolgus, UniProt A0A2K5W7M7 31-289)", "T2 construct": "whole, on cells; Overexpressed on Expi293 cells; also called cyno BTLA; CynoBTLA", "T2 sequence": "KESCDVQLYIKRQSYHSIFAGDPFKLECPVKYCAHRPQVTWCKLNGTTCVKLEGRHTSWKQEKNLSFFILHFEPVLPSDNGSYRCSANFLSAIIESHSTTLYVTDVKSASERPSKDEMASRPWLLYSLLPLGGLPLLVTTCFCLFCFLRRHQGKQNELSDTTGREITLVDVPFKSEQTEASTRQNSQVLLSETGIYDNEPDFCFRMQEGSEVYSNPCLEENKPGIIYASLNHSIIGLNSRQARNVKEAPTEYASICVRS", "experiment": "FACS on Expi293.cynoBTLA cells, AF647 anti-human IgG Fc detection", "procedure": "as §1"}, "[5]": {"biological_target": "T1, human BTLA (B- and T-lymphocyte …)", "experiment": "FACS competition on HEK293T.hBTLA cells; competitor hrHVEM-His-DL650", "procedure": "In FIG. 12A, recombinant HVEM soluble protein was conjugated with DyLight 650 (DL650) fluorophore. HEK293 cells overexpressing hBTLA (HEK293.BTLA) were preincubated with increasing concentrations of selected HFB6-3 humanized variants with cysteine mutants or parental HFB6-3 at 4° C. for 30 minutes and then with DL650-conjugated HVEM for additional 30 minutes. After washing, soluble HVEM remaining associated with BTLA on HEK293.BTLA cells was measured by FACS."}, "[6]": {"biological_target": "T1, human BTLA (B- and T-lymphocyte …)", "experiment": "FACS competition on HEK293.BTLA cells; competitor DL650-conjugated soluble HVEM", "procedure": "In FIG. 3A, recombinant HVEM soluble protein was conjugated with DyLight 650 (DL650) fluorophore. HEK293 cells overexpressing hBTLA (HEK293.BTLA) were preincubated with increasing concentrations of HFB6-2 and HFB6-3 at 4° C. for 30 minutes and then with DL650-conjugated HVEM for an additional 30 minutes. After washing, soluble HVEM remaining associated with BTLA on HEK293.BTLA cells was measured by FACS. HFB6-2 and HFB6-3 blocked soluble HVEM and cellular BTLA interaction with single digit nM IC₅₀."}, "[7]": {"biological_target": "T1, human BTLA (B- and T-lymphocyte …)", "experiment": "FACS on HEK293 cells overexpressing human BTLA, AF647 anti-human IgG Fc detection", "procedure": "(§2) In FIGS. 2A-2B, HEK293 cells overexpressing human BTLA and Expi293 cells overexpressing cynomolgus BTLA were incubated with different concentrations of anti-BTLA parental antibodies. Anti-BTLA antibody binding to target cells was quantified with an AF647-conjugated anti-human IgG Fc 2nd antibody by FACS."}, "cynomolgus BTLA on cells [8]": {"biological_target": "T2, cynomolgus BTLA on cells", "experiment": "FACS on Expi293 cells overexpressing cynomolgus BTLA, AF647 anti-human IgG Fc detection", "procedure": "as §2"}, "[9]": {"biological_target": "T1, human BTLA (B- and T-lymphocyte …)", "experiment": "FACS, primary human T cells, donor 149, AF647 anti-human IgG Fc secondary antibody", "procedure": "(§3) In FIGS. 4A-4D, primary T cells and B cells were isolated from human PBMC with EasySep™ Human T Cell Isolation Kit and B cell isolation kit ([…] Technologies: Vancouver, Canada). Isolated T cells or B cells were incubated with different concentrations of anti-BTLA parental antibodies. Anti-BTLA antibody binding to target cells was quantified with an AF647-conjugated anti-human IgG Fc 2nd antibody by FACS."}, "[10]": {"biological_target": "T1, human BTLA (B- and T-lymphocyte …)", "experiment": "FACS, primary human B cells, donor 149, AF647 anti-human IgG Fc secondary antibody", "procedure": "as §3"}, "[11]": {"biological_target": "T1, human BTLA (B- and T-lymphocyte …)", "experiment": "FACS, primary human T cells, donor 1709, AF647 anti-human IgG Fc secondary antibody", "procedure": "as §3"}, "[12]": {"biological_target": "T1, human BTLA (B- and T-lymphocyte …)", "experiment": "FACS, primary human B cells, donor 1709, AF647 anti-human IgG Fc secondary antibody", "procedure": "as §3"}, "[13]": {"biological_target": "T1, human BTLA (B- and T-lymphocyte …)", "experiment": "FACS, HEK293 cells overexpressing human BTLA, AF647 anti-human IgG Fc secondary antibody"}, "cynomolgus BTLA on cells [14]": {"biological_target": "T2, cynomolgus BTLA on cells", "experiment": "FACS, Expi293 cells overexpressing cynomolgus BTLA, AF647 anti-human IgG Fc secondary antibody"}, "[15]": {"biological_target": "T1, human BTLA (B- and T-lymphocyte …)", "experiment": "cell-based or functional assay", "remark": "listed apart in the source"}, "recombinant human BTLA": {"biological_target": "T3, recombinant human BTLA (human, UniProt Q7Z6A9 31-157, limits assumed)", "T3 construct": "ELISA antigen; construct not described", "T3 sequence (looked up)": "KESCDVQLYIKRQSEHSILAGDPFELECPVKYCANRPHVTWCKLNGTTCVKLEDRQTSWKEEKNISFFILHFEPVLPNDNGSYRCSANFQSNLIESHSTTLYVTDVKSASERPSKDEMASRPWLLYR", "experiment": "ELISA on recombinant human BTLA"}}, "data": [{"binder": "B1", "values": [{"measurement": "BTLA-HVEM blockade reporter assay, EC50", "setting": "[1]", "result": 12.5, "unit": "nM"}, {"measurement": "CHO.TCRa.hHVEM/Jurkat.hBTLA.NFAT-luc (EC50 (nM))", "setting": "[2]", "result": 7.9, "unit": "nM"}, {"measurement": "EC50", "setting": "[3]", "result": 3.21, "unit": "nM"}, {"measurement": "EC50", "setting": "cynomolgus BTLA on cells [4]", "result": 5.7, "unit": "nM"}, {"measurement": "IC50", "setting": "[5]", "result": 2.69, "unit": "nM"}, {"measurement": "IC50", "setting": "[6]", "result": 7.71, "unit": "nM"}, {"measurement": "EC50", "setting": "[7]", "result": 1.45, "unit": "nM"}, {"measurement": "EC50", "setting": "cynomolgus BTLA on cells [8]", "result": 0.823, "unit": "nM"}, {"measurement": "EC50", "setting": "[9]", "result": 3.7, "unit": "nM"}, {"measurement": "EC50", "setting": "[10]", "result": 0.44, "unit": "nM"}, {"measurement": "EC50", "setting": "[11]", "result": 7.3, "unit": "nM"}, {"measurement": "EC50", "setting": "[12]", "result": 0.28, "unit": "nM"}]}, {"binder": "B2", "values": [{"measurement": "EC50 (read off the curve)", "setting": "[13]", "result": "~0.8", "unit": "nM"}, {"measurement": "EC50 (read off the curve)", "setting": "cynomolgus BTLA on cells [14]", "result": "~0.6", "unit": "nM"}]}, {"binder": "B3", "values": [{"measurement": "BTLA-HVEM blockade reporter assay, EC50", "setting": "[1]", "result": 10.2, "unit": "nM"}, {"measurement": "Reporter EC50", "setting": "[15]", "result": 11.5, "unit": "nM"}, {"measurement": "EC50", "setting": "recombinant human BTLA", "result": 2.35, "unit": "nM"}, {"measurement": "IC50", "setting": "[6]", "result": 5.45, "unit": "nM"}, {"measurement": "EC50", "setting": "[7]", "result": 2.34, "unit": "nM"}, {"measurement": "EC50", "setting": "cynomolgus BTLA on cells [8]", "result": 0.614, "unit": "nM"}, {"measurement": "EC50", "setting": "[9]", "result": 1.4, "unit": "nM"}, {"measurement": "EC50", "setting": "[10]", "result": 0.8, "unit": "nM"}, {"measurement": "EC50", "setting": "[11]", "result": 2, "unit": "nM"}, {"measurement": "EC50", "setting": "[12]", "result": 0.28, "unit": "nM"}]}, {"binder": "B4", "values": [{"measurement": "CHO.TCRa.hHVEM/Jurkat.hBTLA.NFAT-luc (EC50 (nM))", "setting": "[2]", "result": 14.4, "unit": "nM"}, {"measurement": "EC50", "setting": "[3]", "result": 4.04, "unit": "nM"}, {"measurement": "EC50", "setting": "cynomolgus BTLA on cells [4]", "result": 8.83, "unit": "nM"}, {"measurement": "IC50", "setting": "[5]", "result": 3.2, "unit": "nM"}]}]}
